From PMC5216522, “Pyruvic oxime dioxygenase from heterotrophic nitrifier Alcaligenes faecalis is a nonheme Fe^(II)-dependent enzyme homologous to class II aldolase” (Scientific Reports, 2017)

Substrate: CC(=NO)C(=O)O
Test: nitrite production by diazo-coupling, Hanes-Woolf plot
Type: biochemical, Alcaligenes faecalis
Details: Fe(II)-reconstituted enzyme, 10 mM Tris-HCl pH 8.0, 1 mM sodium ascorbate, 100 μM FeSO4, 37 °C, co-substrate O2, kcat apparent, per subunit

B1: rPOD (recombinant pyruvic oxime dioxygenase) (Alcaligenes faecalis) (protein)
chain: MDTPLRDKSYFDERATKEMATHLQQVQRDTRETMAFACRILAMTEQEAGLAGQISVRSERPGAYWTLRFGLGFDEATPEDFIEVDRDLNTLSGEGMANPATRFHLWVYEARPDVNSIIHTHSPWATVLATARQPLVISQMDMTPLHNDCAFLGEWPGVPIADQEGVIISKALGDKRAIILAHHGYLTAGKSCQEATYLSVYLERAARLQVRAQAAFGPLTPVDDTLAAEAHDYLLKPSIVNATFDYWSRQTQGIAPLTKTR
notes: full length, 261 residues, 29,106 Da; pET21a(+) NdeI/XhoI with own stop codon, untagged; expressed in E. coli BL21(DE3)-CodonPlus; homotetramer (135 kDa by gel filtration); Fe(II)-reconstituted
  Km: 470 µM
  kcat: 4.69 s⁻¹
